Our source for the amyloid nucleation score values is the supplement of paper PMC12042874.

± gives the uncertainty stated by the source.

This data set in a line: amyloid nucleation score (Sup35N fusion, yeast selection) (log enrichment); library NNK3; higher = more nucleation; inactive = no reads after selection. In short, it runs like this: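 Random libraries were run with three technical output replicates. In each, psi-negative yeast expressing Sup35N fused to peptides of 20 random codons were induced 24 hours with 100 μM copper sulfate and grown 7 days at 30°C on medium lacking adenine and uracil, and input and output plasmid inserts were Illumina-sequenced. The nucleation score is the DiMSum log enrichment of output over input reads, centred on the mode score of non-aggregating sequences, and sequences under 100 input reads were excluded.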
For the substance RTIHVGWVMAIIGTALRCCM, the amyloid nucleation score entry is “inactive”.
Consider KSYFANSG, for which the amyloid nucleation score entry was “inactive”.
As for RFSNAMLMCLVTNVSC, the figure is 0.451 ± 0.61.
The same measure for WSVGATWVVAFA: “inactive”; for KCGRSR: “inactive”.
With KFIVVGYLGTIPTHPVGVPY, the amyloid nucleation score is 0.6 ± 0.25.
Turning to SLVTFMLLMIKGMSGYFRTV, the amyloid nucleation score entry was “inactive”.
The same measure for QFLLGWNPNTSDLVLTFVQQ: 1.15 ± 0.14.
As for PTNDAYVVVMD, the entry is “inactive”; as for VTRPVVSQ, “inactive”; as for NTPVGLINYSGDTWLMAIRW, “inactive”.
The same measure for ERSVPSGE: “inactive”.
For the substance SLFINT, the amyloid nucleation score entry was “inactive”.
In the case of PAQSQAYVLKAGGPRLDGRV, the amyloid nucleation score result is “inactive”.
For RRYSRVKVRRLFMRNNLMLN, the amyloid nucleation score was 0.283 ± 0.15.
As for LAVSGKEHAK, the entry is “inactive”; as for LETLVKPLELGSYFDFCCWA, “inactive”; as for RSMNLRSKLMSACGGFMS, “inactive”.
The same measure for WMPDPRVCQKMFVMCKHSP: “inactive”.
Substance GSFAGCMGCLCYILVCSVYR returned an amyloid nucleation score of 0.717 ± 0.12.
Regarding IVYRVSVFSWLVMDPDDK, the amyloid nucleation score entry was “inactive”.
The same measure for APFRMLAFGMWEALMAGSNS: “inactive”.
For the substance RLGFF, the amyloid nucleation score entry was “inactive”.
As for DCFSGIGCSRRKT, the entry is “inactive”; as for SYMYLRGVLRYLVDMFALWI, “inactive”; as for FVLQFSSGCYFGPD, “inactive”.
As for NHESVVWDMNGHPSPVGRGE, the entry is “inactive”; as for SNVCINLAGYDYIFFRCMMG, 0.293 ± 0.24.
As for SRFDDCSVYRESWVSIVRLS, the entry is “inactive”; as for PRCISSPRSPSLNVWVLKSE, “inactive”; as for GSVTEGFVGLG, “inactive”.
As for YRAYYSYSFRW, the amyloid nucleation score entry is “inactive”.
As for YNDNSNCSARMGLI, the entry is “inactive”; as for WLVGICWNWRWHLAVAGVVG, “inactive”.
For FVEISRSGLLWFDF, the amyloid nucleation score entry is “inactive”.
LSSYTVSFPKRMHRSEYFGY displayed an amyloid nucleation score of -0.73 ± 0.9.
As for FLVLTNHRGARVRASCVMDR, the entry is “inactive”; as for FRNRLGSTDNQWV, “inactive”; as for ANSWSMLHVECFYML, 2.44 ± 0.058.
Substance KSLSIRFYWVSPWTVVWDSR showed an amyloid nucleation score of 0.872 ± 0.11.
With LMNEKNPSQDNRFRIVRALS, the amyloid nucleation score result is “inactive”.
As for HLLELELVFSILRRLMYWPM, the entry is “inactive”.
For LAWVLMHSAKLGLKKRQAWG, the amyloid nucleation score result is “inactive”.
In the case of GSLYFSCINPM, the amyloid nucleation score entry was “inactive”.
As for NNLMLV, the entry is “inactive”; as for FLFRC, “inactive”.
Consider FWSPGYTIVTVTLNGLVPW, for which the amyloid nucleation score entry is “inactive”.
The same measure for MPPRVRYR: “inactive”; for TVMPLRMSSISGSAGTSA: “inactive”; for RHGFALRLVHSSL: “inactive”.
For VDMRSDDLIMQFWQLLSDDV, the amyloid nucleation score result is “inactive”.
The same measure for SESYPTRLSGRKILTRALT: “inactive”.
The same measure for QFTHTNIFTND: “inactive”; for LPVVFLCRYDSI: “inactive”.
Turning to VIAVRYYRLLDRMNVSGSVF, the amyloid nucleation score result was “inactive”.
